The record followed here is patent US20220002436A1 (DENALI THERAPEUTICS, published 2022).

Assay [1] has as its target T1, Human TfR apical domain (human, UniProt P02786 198-378).
T1 construct: also called apical hTfR; human apical hTfR
As to the kind of experiment: SPR (Biacore 8K), fusion protein captured with Human Fab Capture Kit, human TfR apical domain as analyte, 1:1 kinetic fit. The method, then:
The affinities of Fc polypeptide dimer-antibody variable region fusion proteins for human TfR apical domain and HER2 ECD were determined by surface plasmon resonance using a Biacore™ 8K. Fc polypeptide dimer-antibody variable region fusion proteins were captured using a Human Fab Capture Kit (GE, #28-9583-25) on Biacore™ Series S CM5 sensor chips (GE, #29149604) for measurement of human TfR apical domain binding, or using a Human Fc capture Kit (GE, #29234600) for measurement of human HER2-ECD binding (ACROBiosystems, HE2-H5225). Serial 3-fold dilutions of each antigen were injected at a flow rate of 30 μL/min. The binding of the antigens to captured Fc polypeptide dimer-antibody variable region fusion proteins was monitored for 30 to 300 seconds and then their dissociation was monitored for 30-4,200 seconds in HBS-EP+ running buffer. Binding responses were corrected by subtracting the RU from a blank flow cell. A 1:1 Languir model of simultaneous fitting of kₒₙ and koff was used for kinetics analysis.

In assay [2] the target is T1, Human TfR apical domain. As to the kind of experiment: SPR (Biacore), apical hTfR.
The target in assay [3] is HER2 on HER2-positive cancer cells (BT474, OE19, SK-BR-3) (human, UniProt P04626 23-1255). The assay can be described thus: cell-based or functional assay.
Assay [4] has as its target T1, Human TfR apical domain. The assay can be described thus: SPR (Biacore T200 or 8K), captured via anti-human Fab, recombinant TfR apical domain as analyte, steady-state affinity. As for the experimental part: (§1) Affinities of mAbs and TfR-binding Fc polypeptides were measured by SPR using a Biacore T200 or a Biacore 8K. Biacore™ Series S CM5 sensor chips were immobilized with monoclonal mouse anti-human IgG (Fc) antibody for HER2 affinity measurements or mouse anti-human Fab for TfR affinity measurements (human antibody or Fab capture kit from GE Healthcare). Serial 3-fold dilutions of analyte (recombinant HER2 extracellular domain or recombinant TfR apical domain) were injected at a flow rate of 30 μL/min. Each sample was analyzed using a 3-minute association and a 10-minute dissociation. After each injection, the chip was regenerated using 3 M MgCl₂. Binding response was corrected by subtracting the RU from a flow cell capturing an irrelevant IgG at similar density. A 1:1 Languir model of simultaneous fitting of kₒₙ and koff was used for kinetics analysis.

Assay [5] has as its target T2, HER2 extracellular domain (human, UniProt P04626 23-652).
T2 construct: extracellular domain; also called HER2 ECD; HER2-ECD
The assay can be described thus: SPR (Biacore T200 or 8K), captured via anti-human IgG (Fc), recombinant HER2 extracellular domain as analyte, 1:1 kinetic fit. As for the experimental part: as §1

In assay [6] the target is T1, Human TfR apical domain. The assay can be described thus: SPR (Biacore), antibody captured via anti-human Fab, recombinant TfR apical domain as analyte; the table footnote says NB = no binding. The method, then: as §1

T1 sequence (P02786 198-378 limits assumed): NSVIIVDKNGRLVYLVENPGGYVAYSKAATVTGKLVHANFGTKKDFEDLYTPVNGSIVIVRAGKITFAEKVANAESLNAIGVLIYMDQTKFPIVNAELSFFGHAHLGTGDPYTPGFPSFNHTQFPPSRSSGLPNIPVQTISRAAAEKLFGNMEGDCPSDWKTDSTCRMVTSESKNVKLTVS

B1: HER2_DII-35.23.1.1^cisLALA (bispecific antibody, human IgG1, kappa, L234A L235A)
heavy 1: EVQLVESGGGLVQPGGSLRLSCAASGFTFTDYTMDWVRQAPGKGLEWVADVNPNSGGSIYNQRFKGRFTLSVDRSKNTLYLQMNSLRAEDTAVYYCARNLGPSFYFDYWGQGTLVTVSSASTKGPSVFPLAPSSKSTSGGTAALGCLVKDYFPEPVTVSWNSGALTSGVHTFPAVLQSSGLYSLSSVVTVPSSSLGTQTYICNVNHKPSNTKVDKKVEPKSCDKTHTCPPCPAPEAAGGPSVFLFPPKPKDTLMISRTPEVTCVVVDVSHEDPEVKFNWYVDGVEVHNAKTKPREEQYNSTYRVVSVLTVLHQDWLNGKEYKCKVSNKALPAPIEKTISKAKGQPREPQVYTLPPSRDELTKNQVSLWCLVKGFYPSDIAVEWESFGTEWSNYKTTPPVLDSDGSFFLYSKLTVSKEEWQQGFVFSCSVMHEALHNHYTQKSLSLSPGK
heavy 2: not shown
light: not shown
notes: Fc polypeptide dimer-Fab fusion; the second heavy chain is a hole Fc without a TfR site; also called ATV35.23.1.1:Her2_DII huIgG1.LALA.knob
Consider B1, for which the Kd in the assay with Human TfR apical domain [1] was 0.534 µM; in the assay with Human TfR apical domain [2], 0.62 µM.

B2: HER2_DII-35.23.4^cisLALA (bispecific antibody, human IgG1, kappa, L234A L235A)
heavy 1: EVQLVESGGGLVQPGGSLRLSCAASGFTFTDYTMDWVRQAPGKGLEWVADVNPNSGGSIYNQRFKGRFTLSVDRSKNTLYLQMNSLRAEDTAVYYCARNLGPSFYFDYWGQGTLVTVSSASTKGPSVFPLAPSSKSTSGGTAALGCLVKDYFPEPVTVSWNSGALTSGVHTFPAVLQSSGLYSLSSVVTVPSSSLGTQTYICNVNHKPSNTKVDKKVEPKSCDKTHTCPPCPAPEAAGGPSVFLFPPKPKDTLMISRTPEVTCVVVDVSHEDPEVKFNWYVDGVEVHNAKTKPREEQYNSTYRVVSVLTVLHQDWLNGKEYKCKVSNKALPAPIEKTISKAKGQPREPQVYTLPPSRDELTKNQVSLWCLVKGFYPSDIAVEWESYGTEWSNYKTTPPVLDSDGSFFLYSKLTVSKEEWQQGFVFSCSVMHEALHNHYTQKSLSLSPGK
heavy 2: not shown
light: not shown
notes: also called ATV:HER2-DII; ATV:-HER2-DII
As for B2, in the assay with Human TfR apical domain [1], the Kd was determined as 0.445 µM. In assay [3], the “IC50, BT474 cell viability (growth inhibition assay)” value is 0.00117 µM and the “IC50, OE19 cell viability (growth inhibition assay)” value came to 0.000725 µM. Moreover, the Kd with Human TfR apical domain [4] stood at 0.45 µM.

B3: anti-HER2-DI (antibody, human IgG1, kappa, V domains shown)
VH: QVQLQQPGAELVRPGASVKLSCKASGYSFTGYWMNWLKQRPGQGLEWIGMIHPSDSEIRANQKFRDKATLTVDKSSTTAYMQLSSPTSEDSAVYYCARGTYDGGFEYWGQGTTLTVSS
VL: DIVLTQSPASLVVSLGQRATISCRASQSVSGSRFTYMHWYQQKPGQPPKLLIKYASILESGVPARFSGGGSGTDFTLNIHPVEEDDTATYYCQHSWEIPPWTFGGGTKLEIKR
In the case of B3, in assay [5], the dissociation constant (Kd) came out at 0.0065 µM, the koff was determined as 0.00101 s⁻¹ and the association rate constant (kon) worked out at 154000 M⁻¹ s⁻¹. Besides, in the assay with Human TfR apical domain [6], the binding result is “no binding”.

B4: HER2_DI-35.23.4^cisLALA (bispecific antibody, human IgG1, kappa, L234A L235A)
heavy 1: QVQLQQPGAELVRPGASVKLSCKASGYSFTGYWMNWLKQRPGQGLEWIGMIHPSDSEIRANQKFRDKATLTVDKSSTTAYMQLSSPTSEDSAVYYCARGTYDGGFEYWGQGTTLTVSSASTKGPSVFPLAPSSKSTSGGTAALGCLVKDYFPEPVTVSWNSGALTSGVHTFPAVLQSSGLYSLSSVVTVPSSSLGTQTYICNVNHKPSNTKVDKKVEPKSCDKTHTCPPCPAPEAAGGPSVFLFPPKPKDTLMISRTPEVTCVVVDVSHEDPEVKFNWYVDGVEVHNAKTKPREEQYNSTYRVVSVLTVLHQDWLNGKEYKCKVSNKALPAPIEKTISKAKGQPREPQVYTLPPSRDELTKNQVSLWCLVKGFYPSDIAVEWESYGTEWSNYKTTPPVLDSDGSFFLYSKLTVSKEEWQQGFVFSCSVMHEALHNHYTQKSLSLSPGK
heavy 2: not shown
light: DIVLTQSPASLVVSLGQRATISCRASQSVSGSRFTYMHWYQQKPGQPPKLLIKYASILESGVPARFSGGGSGTDFTLNIHPVEEDDTATYYCQHSWEIPPWTFGGGTKLEIKRTVAAPSVFIFPPSDEQLKSGTASVVCLLNNFYPREAKVQWKVDNALQSGNSQESVTEQDSKDSTYSLSSTLTLSKADYEKHKVYACEVTHQGLSSPVTKSFNRGEC
notes: Fc polypeptide dimer-Fab fusion; the hole chain has no TfR site and no LALA; also called ATV:HER2-DI; ATV:-HER2-DI
Take B4: in assay [5], the Kd is 0.0075 µM, the koff is 0.00105 s⁻¹ and the kon was determined as 139000 M⁻¹ s⁻¹. Further, the Kd with Human TfR apical domain [4] worked out at 0.37 µM.
